Where no end group is shown, it is not given here.
What was measured:
GHRHR(23-423) (human) = GHRHR(23-423) (human) (UniProt Q02643)
GHRHR WT = test: cAMP accumulation, GHRH vs GHRH(D3A) (Supplementary Fig. 6c); assay type: cell-based, human; conditions: D3A in GHRH; WT receptor
Method: GHRH-stimulated cAMP accumulation was measured by a LANCE Ultra cAMP kit (PerkinElmer). Briefly, 24 h after transfection with GHRHR(23-423), GHRHR(23-405), GHRHR(23-405)-LgBiT-2MBP, or HA-Flag-GHRHR (WT and mutants), HEK 293 T cells (3000/well in 384-well white plates, PerkinElmer) were digested by 0.2% (w/v) EDTA and 5 μL stimulation buffer (HBSS supplemented with 5 mM HEPES, 0.5 mM IBMX, and 0.1% (w/v) BSA, pH 7.4). Different concentrations (5 μL) of GHRH were then added and the stimulation lasted for 30 min at RT. The reaction was stopped by adding 5 μL Eu-cAMP tracer and 5 μL ULight-anti-cAMP. After 1 h RT incubation, TR-FRET signals (excitation: 320 nm, emission: 615 and 665 nm) were measured by an EnVision (PerkinElmer).

[1] = target: GHRHR(23-423) (WT) (human) (UniProt Q02643)
[2] = target: HA-Flag-GHRHR C195A (human) (UniProt Q02643)
[3] = target: HA-Flag-GHRHR F187A (human) (UniProt Q02643)
[4] = target: HA-Flag-GHRHR H210A (human) (UniProt Q02643)
[5] = target: HA-Flag-GHRHR K182A (human) (UniProt Q02643)
[6] = target: HA-Flag-GHRHR N346A (human) (UniProt Q02643)
[7] = target: HA-Flag-GHRHR R357A (human) (UniProt Q02643)
[8] = target: HA-Flag-GHRHR T213A (human) (UniProt Q02643)
[9] = target: HA-Flag-GHRHR W282A (human) (UniProt Q02643)
HA-Flag-GHRHR K182A = target: T1, HA-Flag-GHRHR K182A (human, UniProt Q02643 23-423, K182^2.67bA); test: cell-based or functional assay
T1 sequence (looked up): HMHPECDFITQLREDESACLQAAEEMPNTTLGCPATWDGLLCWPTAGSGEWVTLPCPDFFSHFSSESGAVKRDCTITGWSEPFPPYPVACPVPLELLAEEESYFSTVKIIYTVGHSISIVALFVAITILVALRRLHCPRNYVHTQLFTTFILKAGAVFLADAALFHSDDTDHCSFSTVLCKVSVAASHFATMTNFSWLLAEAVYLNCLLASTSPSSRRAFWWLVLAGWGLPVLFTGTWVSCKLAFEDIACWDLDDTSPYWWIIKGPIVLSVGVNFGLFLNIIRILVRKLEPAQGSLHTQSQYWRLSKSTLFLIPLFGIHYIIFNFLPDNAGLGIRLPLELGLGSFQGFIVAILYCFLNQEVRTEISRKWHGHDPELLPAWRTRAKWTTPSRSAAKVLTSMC

HA-Flag-GHRHR F187A = target: T2, HA-Flag-GHRHR F187A (human, UniProt Q02643 23-423, F187^ECL1A); test: cell-based or functional assay
T2 sequence (looked up): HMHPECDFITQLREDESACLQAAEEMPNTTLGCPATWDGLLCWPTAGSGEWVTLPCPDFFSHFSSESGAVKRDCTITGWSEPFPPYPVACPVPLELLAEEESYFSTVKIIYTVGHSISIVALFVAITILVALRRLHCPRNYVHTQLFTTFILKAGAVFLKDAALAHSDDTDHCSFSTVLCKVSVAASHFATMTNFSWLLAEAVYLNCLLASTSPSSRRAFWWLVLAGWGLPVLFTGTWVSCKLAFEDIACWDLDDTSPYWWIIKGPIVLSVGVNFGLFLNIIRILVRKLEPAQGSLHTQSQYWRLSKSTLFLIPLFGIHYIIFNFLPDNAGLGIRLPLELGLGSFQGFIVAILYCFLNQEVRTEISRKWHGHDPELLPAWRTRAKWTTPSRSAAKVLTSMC

HA-Flag-GHRHR C195A = target: T3, HA-Flag-GHRHR C195A (human, UniProt Q02643 23-423, C195^ECL1A); test: cell-based or functional assay
T3 sequence (looked up): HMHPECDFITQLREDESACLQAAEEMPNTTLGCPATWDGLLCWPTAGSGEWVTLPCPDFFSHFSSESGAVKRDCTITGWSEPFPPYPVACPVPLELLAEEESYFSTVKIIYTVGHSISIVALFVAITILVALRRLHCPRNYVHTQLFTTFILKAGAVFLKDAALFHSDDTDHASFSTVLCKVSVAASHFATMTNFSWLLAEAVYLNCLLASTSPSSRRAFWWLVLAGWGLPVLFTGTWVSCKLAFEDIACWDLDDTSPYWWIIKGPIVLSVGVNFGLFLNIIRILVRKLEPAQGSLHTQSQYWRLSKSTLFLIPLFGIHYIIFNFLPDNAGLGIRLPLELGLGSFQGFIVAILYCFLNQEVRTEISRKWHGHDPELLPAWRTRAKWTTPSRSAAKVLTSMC

HA-Flag-GHRHR R357C = target: T4, HA-Flag-GHRHR R357C (human, UniProt Q02643 23-423, R357C); test: cell-based or functional assay
T4 sequence (looked up): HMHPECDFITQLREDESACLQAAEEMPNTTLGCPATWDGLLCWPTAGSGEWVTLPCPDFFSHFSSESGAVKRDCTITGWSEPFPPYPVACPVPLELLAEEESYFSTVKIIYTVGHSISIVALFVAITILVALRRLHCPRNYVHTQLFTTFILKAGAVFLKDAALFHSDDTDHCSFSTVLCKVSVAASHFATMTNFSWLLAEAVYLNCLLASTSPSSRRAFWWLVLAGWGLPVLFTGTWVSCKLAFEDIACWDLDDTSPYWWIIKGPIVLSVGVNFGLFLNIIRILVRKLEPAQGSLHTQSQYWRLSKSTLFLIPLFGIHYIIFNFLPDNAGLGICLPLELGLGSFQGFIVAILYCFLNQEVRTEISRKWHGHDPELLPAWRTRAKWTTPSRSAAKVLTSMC

In the case of GHRH D^3PA (peptide), the cAMP accumulation in HEK 293 T cells: fold loss of potency (GHRHR(23-423) (human)) is reported as 4 fold.

For “GHRH(D3A): GHRH with Asp3 replaced by Ala (YAAAIFTNSYRKVLGQLSARKLLQDIMSRQQGESNQERGARARL; ends and bridges not checked; UniProt P01286 32-75, looked up, variant D3A)”, the “diminished potency vs GHRH” value (GHRHR WT) was ~ 4 fold.

In the case of “growth hormone-releasing hormone (GHRH) (from UniProt P01286 32-75) (peptide)”, the Supplementary Table 4, Wild-type: pEC50 of GHRH-induced cAMP accumulation, HEK 293T cells [1] is reported as 9.74 -log M, the Supplementary Table 4, C195A: pEC50 of GHRH-induced cAMP accumulation, HEK 293T cells [2] is reported as 7.67 -log M and the Supplementary Table 4, F187A: pEC50 of GHRH-induced cAMP accumulation, HEK 293T cells [3] is reported as 8.94 -log M. For the same molecule, the Supplementary Table 4, H210A: pEC50 of GHRH-induced cAMP accumulation, HEK 293T cells [4] was 9 -log M, the Supplementary Table 4, K182A: pEC50 of GHRH-induced cAMP accumulation, HEK 293T cells [5] was 7.4 -log M and the Supplementary Table 4, N346A: pEC50 of GHRH-induced cAMP accumulation, HEK 293T cells [6] was 8.85 -log M. The Supplementary Table 4, R357A: pEC50 of GHRH-induced cAMP accumulation, HEK 293T cells [7] was 6.87 -log M, the Supplementary Table 4, T213A: pEC50 of GHRH-induced cAMP accumulation, HEK 293T cells [8] was 9.35 -log M and the Supplementary Table 4, W282A: pEC50 of GHRH-induced cAMP accumulation, HEK 293T cells [9] was 7.88 -log M.

B1: Growth hormone-releasing hormone (GHRH) (peptide, UniProt P01286 32-75, looked up)
peptide: YADAIFTNSYRKVLGQLSARKLLQDIMSRQQGESNQERGARARL
B1 was tested, and the “cAMP accumulation in HEK 293 T cells: fold loss of GHRH potency” value (HA-Flag-GHRHR K182A) was roughly 200 fold, the “cAMP accumulation in HEK 293 T cells: fold loss of GHRH potency” value (HA-Flag-GHRHR F187A) was roughly 5 fold and the “cAMP accumulation in HEK 293 T cells: fold loss of GHRH potency” value (HA-Flag-GHRHR C195A) was roughly 100 fold. The “cAMP accumulation in HEK 293 T cells: fold loss of GHRH potency” value (HA-Flag-GHRHR R357C) was 1000 fold.

From article PMC7567103 (Nature Communications, 2020)
